“And” between values parts separate entries of the source, which are not always exact repeats. Equal values may be shown once.

The target of this test is EGFR 1045+ add-back mutant (pY-null 9Y- backbone with Y1045 added back) (human) (UniProt P00533). The experiment in a line: co-IP.

With “Cbl, endogenous in NR6 cells (from UniProt P22682 1-913) (enzyme)”, the fold reduction of association against EGFR-WT was 4 fold and 5 fold.
